According to US20180355059A1 (PHARMAEXPLORER, published 2018):

Legend:
[1] = target: T1, recombinant human PCSK9-His protein (Immunogen A) (human, UniProt Q8NBP7 31-692, limits assumed, biotinylated in the ELISA assays); assay: ELISA; antibody 0 nM
T1 construct: also called hPCSK9-His; His-tagged hPCSK9; not shown: His tag

[2] = target: T2, recombinant cyno monkey PCSK9 protein (cyno monkey, UniProt A8T666 31-692 (rhesus entry), limits assumed, biotinylated in the ELISA assays); assay: ELISA; antibody 0 nM
T2 construct: also called cyno PCSK9; Cyno Monkey PCSK9-His
T2 sequence (A8T666 31-692 limits assumed): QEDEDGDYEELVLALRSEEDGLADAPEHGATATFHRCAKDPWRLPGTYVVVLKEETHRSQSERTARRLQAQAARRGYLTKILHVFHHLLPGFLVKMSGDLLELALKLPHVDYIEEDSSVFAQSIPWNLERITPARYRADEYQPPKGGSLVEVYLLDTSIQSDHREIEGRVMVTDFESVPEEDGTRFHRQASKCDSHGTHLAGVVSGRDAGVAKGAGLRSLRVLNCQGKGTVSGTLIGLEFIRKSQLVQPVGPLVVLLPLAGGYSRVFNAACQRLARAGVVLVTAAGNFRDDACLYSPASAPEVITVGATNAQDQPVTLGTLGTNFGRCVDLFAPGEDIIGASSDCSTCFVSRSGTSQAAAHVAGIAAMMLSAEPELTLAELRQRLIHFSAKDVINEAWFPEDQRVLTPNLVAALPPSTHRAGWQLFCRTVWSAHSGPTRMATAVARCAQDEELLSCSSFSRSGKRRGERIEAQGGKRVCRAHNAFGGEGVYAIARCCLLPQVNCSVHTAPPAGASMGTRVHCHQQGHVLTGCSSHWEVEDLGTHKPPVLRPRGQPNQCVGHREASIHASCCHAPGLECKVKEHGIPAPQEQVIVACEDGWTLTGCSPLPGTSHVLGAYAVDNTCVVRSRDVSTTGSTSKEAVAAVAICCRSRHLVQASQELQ

[3] = target: T1, recombinant human PCSK9-His protein …; assay: ELISA; antibody 0.67 nM
[4] = target: T1, recombinant human PCSK9-His protein …; assay: ELISA; antibody 6.67 nM
[5] = target: T2, recombinant cyno monkey PCSK9 protein; assay: ELISA; antibody 0.67 nM
[6] = target: T2, recombinant cyno monkey PCSK9 protein; assay: ELISA; antibody 6.67 nM
[7] = target: T1, recombinant human PCSK9-His protein …; assay: ELISA; antibody 0.067 nM
[8] = target: T1, recombinant human PCSK9-His protein …; assay: ELISA; antibody 66.67 nM
[9] = target: T2, recombinant cyno monkey PCSK9 protein; assay: ELISA; antibody 0.067 nM
[10] = target: T2, recombinant cyno monkey PCSK9 protein; assay: ELISA; antibody 66.67 nM
[11] = target: T1, recombinant human PCSK9-His protein …; assay: ELISA; antibody 0.0067 nM
[12] = target: T2, recombinant cyno monkey PCSK9 protein; assay: ELISA; antibody 0.0067 nM
[13] = target: T1, recombinant human PCSK9-His protein …; assay: ELISA; antibody 0.00067 nM
[14] = target: T2, recombinant cyno monkey PCSK9 protein; assay: ELISA; antibody 0.00067 nM
[15] = target: T1, recombinant human PCSK9-His protein …; assay: ELISA; antibody 0.000067 nM
[16] = target: T2, recombinant cyno monkey PCSK9 protein; assay: ELISA; antibody 0.000067 nM
[17] = target: T1, recombinant human PCSK9-His protein …; assay: BLI, Octet Red 96; antibody on AHC sensor
Procedure: Dissociation constants were determined by Octed red 96 (Fortiebio). The detailed operation and methods were followed according to the specifications of the instrument provided by the manufacturer. Briefly, an AHC sensor (Anti-human Fc sensor, Fortiebio) was used for the affinity determination. The anti-PCSK9 antibody was diluted to 10 ug/mL in PBS buffer (pH7.4) containing 0.1% (w/w) BSA and 0.02% (v/v) Tween 20 and incubated with the AHC sensor. […] The reaction mixture was further incubated in PBS buffer (pH7.4) containing 0.1% (v/w) BSA and 0.02% (v/v) Tween 20 at 30° C. for 5 minutes.

[18] = target: T1, recombinant human PCSK9-His protein …; assay: ELISA of PCSK9 binding to LDLR ECD; antibody 0 nM
[19] = target: T1, recombinant human PCSK9-His protein …; assay: ELISA of PCSK9 binding to LDLR ECD; antibody 8 nM
[20] = target: T1, recombinant human PCSK9-His protein …; assay: ELISA of PCSK9 binding to LDLR ECD; antibody 40 nM
[21] = target: T1, recombinant human PCSK9-His protein …; assay: ELISA of PCSK9 binding to LDLR ECD; antibody 1.6 nM
[22] = target: T1, recombinant human PCSK9-His protein …; assay: ELISA of PCSK9 binding to LDLR ECD; antibody 200 nM
[23] = target: T1, recombinant human PCSK9-His protein …; assay: ELISA of PCSK9 binding to LDLR ECD; antibody 0.01 nM
[24] = target: T1, recombinant human PCSK9-His protein …; assay: ELISA of PCSK9 binding to LDLR ECD; antibody 0.06 nM
[25] = target: T1, recombinant human PCSK9-His protein …; assay: ELISA of PCSK9 binding to LDLR ECD; antibody 0.32 nM
[26] = target: T1, recombinant human PCSK9-His protein …; assay: SPR, Biacore T200; antibody captured by anti-human Fc
Procedure: Anti-human Fc IgG was immobilized on flow cells 1 and 2: HBS-EP+(10 mM HEPES, 150 mM NaCl, 3 mM EDTA, 0.05% P20, pH 7.4) was used as running buffer, and the immobilization of anti-human Fc IgG was carried out using the immobilization wizard template. Flow cells 1 and 2 of a Series S CM5 sensor chip were activated with freshly-mixed 50 mmol/L NHS and 200 mmol/L EDC. 20 ug/mL of anti-human Fc IgG diluted in 10 mM NaAC (pH 4.5) was injected into the activated flow cells 1 and 2. The remaining active coupling sites were blocked with 1M ethanolamine.
KD measurements were carried out with HBS-EP+ as the running buffer. Each antibody was injected over the CM5 sensor flow cell 2 with a flow rate of 10 uL/min to reach response 230 RU. […] Buffer flow was maintained for 400 seconds for dissociation measurements (30 uL/min). To remove the tested antibody from the surface, 10 mM glycine-HCl pH 1.5 was injected for 20 seconds (30 ulJmin). Flow cell 1 was used as reference flow cell. […] The KD value for each antibody was evaluated using Biacore T200 evaluation software 1.0, and the data was fit with a 1:1 binding model.

OD450 nm [1]: 0.06 OD450 nm | OD450 nm [2]: 0.06 OD450 nm | OD450 nm [3]: 3.09 OD450 nm | OD450 nm [4]: 3.1 OD450 nm | OD450 nm [5]: 2.99 OD450 nm | OD450 nm [6]: 3 OD450 nm | OD450 nm [7]: 1.65 OD450 nm | OD450 nm [8]: 3.06 OD450 nm | OD450 nm [9]: 1.86 OD450 nm | OD450 nm [10]: 2.97 OD450 nm | OD450 nm [11]: 0.25 OD450 nm | OD450 nm [12]: 0.31 OD450 nm | OD450 nm [13]: 0.08 OD450 nm | OD450 nm [14]: 0.09 OD450 nm | OD450 nm [15]: 0.06 OD450 nm | OD450 nm [16]: 0.08 OD450 nm | Kd [17]: 3.63 nM | OD450 nm [18]: 2.4 OD450 nm | OD450 nm [19]: 2.38 OD450 nm | OD450 nm [20]: 2.38 OD450 nm | OD450 nm [21]: 2.4 OD450 nm | OD450 nm [22]: 2.4 OD450 nm | OD450 nm [23]: 2.38 OD450 nm | OD450 nm [24]: 2.43 OD450 nm | OD450 nm [25]: 2.45 OD450 nm | Kd [26]: 2.33 nM
B1: 96F8C6, fully human anti-PCSK9 antibody (antibody, human IgG1, V domains shown)
VH: EVQLVESGGGLVQPGGSLRLSCAASGITFSSYWMSWVRQAPGKGLEWVANIKQDGSEKYYVDSVKGRFTISRDIAKNSLYLQMNSLRAEDTAVYYCARDRGTYYYGSGSYNYYYYGMDVWGQGTTVTVSS
VL: not shown
notes: also called 98F8C6
